Reference: patent US20140056918A1 (Novo Nordisk, published 2014)
Substitutions are numbered along the chain they refer to.

T1: Human OSCAR (osteoclast-associated receptor), full length, on cells (human)
T1 chain: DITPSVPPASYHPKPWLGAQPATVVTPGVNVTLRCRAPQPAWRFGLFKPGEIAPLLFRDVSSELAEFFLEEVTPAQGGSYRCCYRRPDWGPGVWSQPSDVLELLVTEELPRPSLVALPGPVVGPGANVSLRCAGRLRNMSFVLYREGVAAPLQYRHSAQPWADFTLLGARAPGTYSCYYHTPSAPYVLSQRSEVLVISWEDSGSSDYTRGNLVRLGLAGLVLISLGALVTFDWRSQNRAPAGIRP

T2: Human OSCAR-ECD (recombinant extracellular domain of human OSCAR) (human, UniProt Q8IYS5 19-218)
T2 construct: also called OSACAR-ECD
T2 chain: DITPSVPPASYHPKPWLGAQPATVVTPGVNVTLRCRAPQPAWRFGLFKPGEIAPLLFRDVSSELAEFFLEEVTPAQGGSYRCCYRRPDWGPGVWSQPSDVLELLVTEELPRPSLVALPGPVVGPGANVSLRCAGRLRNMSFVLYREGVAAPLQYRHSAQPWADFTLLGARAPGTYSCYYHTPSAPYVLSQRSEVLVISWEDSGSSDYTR

T3: Human OSCAR-S1a (naturally occurring soluble isoform) (human, UniProt Q8IYS5 19-282)
T3 construct: Recombinant soluble isoform used as SPR analyte; also called OSCAR 1Sa
T3 sequence: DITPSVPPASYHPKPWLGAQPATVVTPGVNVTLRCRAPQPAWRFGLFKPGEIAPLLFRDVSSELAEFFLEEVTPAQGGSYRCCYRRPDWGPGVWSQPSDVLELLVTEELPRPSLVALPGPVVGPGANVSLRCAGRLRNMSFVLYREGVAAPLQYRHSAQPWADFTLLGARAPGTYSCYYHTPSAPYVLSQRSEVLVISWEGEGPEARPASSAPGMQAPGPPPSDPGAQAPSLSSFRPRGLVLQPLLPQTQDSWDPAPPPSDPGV

B1: 7F14A1 (antibody, V domains shown)
VH: QVQLKESGPGLVAPSQSLSITCSVSGFSLTSYGVHWVRQPPGKGLEWLGVMWAGGSTNYNSALMSRLSISKDNSKSQVFLKMNSLQTDDSAMYYCALQKGYGNYFDYWGQGTTLTVSS
VL: QIVLTQSPAIMSASPGEKVTMTCSASSSVNYMHWYQQKSGTSPKRWIYDTSNLASGVPTRFSGSGSGTSYSLTISSMEAEDAATYYCQQWSSDPLTFGAGTKLELKR
notes: Mouse anti-human OSCAR mAb; also called 7F14A4
B2: 4F3B (antibody, V domains shown)
VH: QVQLQQSGAELAKPGASVKMSCKASGFTFTSYWMHWVKQRPGQGLEWIGYINPSTDYTEYNQKFKDKATLTADKSSSTAYMQLSSLTSEDSAVYYCARRSPFAMDYWGQGTSVTVSS
VL: DIVMTQSPSSLTVTAGEKVTMSCKSSQSLLNSGNQKNYLTWYQQKPGQPPKVLIYWASTRESGVPDRFTGSGSGTDFTLTISSVQAEDLAVYYCQNDYSYPLTFGTGTKLELKR
notes: Mouse anti-human OSCAR mAb (its isotype control is mIgG1); The heavy chain entry covers only VH-CH1 and the start of the hinge; It was fluorescein-labelled in the peptide array and Alexa Fluor 647-labelled in the flow binning; also called mAb 4F3B
B3: 7F6A1 (antibody, V domains shown)
VH: DVKLVESGGGLVKPGGSLKLSCAASGFTFSSYVMSWVRQTPEKRLEWVATISSGGSYTYYPDSVKGRFTISRDNAKNTLYLQMSSLKSEDTAMYYCTREGGNSPDYWGQGTTLTVSS
VL: ENVLTQSPAIMSASPGEKVTMTCSVSSSISYMHWYRQKSFTSPQLWIYDTSKLASGVPGRFSGSGSGISYSLTISSMEAEDVATYYCFQGSEYPLTFGAGTKLELKR
notes: Mouse anti-human OSCAR mAb; The heavy chain entry covers only VH-CH1 and the start of the hinge
B4: 7F10A1 (antibody, V domains shown)
VH: QVQLQQSGAELARPGASVKLSCKASGYTFTDNYINWVKQRTGQGLEWIGEIYPGSGNTYYNEKFKGKATLTADKSSSTAYMQLSSLTSEDSAVYFCARSANRYDRGDFDYWGQGTPLTVSS
VL: QILLTQSPAIMSASPGEKVTMTCSASSSVSYMHWYQQKPGSSPKPWIYDTSNLASGFPARFSGSGSGTSYSLIISSMEAEDAATYYCHQRSSYPYTFGGGTKLEIKR
notes: as for B3
B5: 7F1A1 (antibody, V domains shown)
VH: QVQLQQSGAELVRPGTSVKVSCKASGYAFTNYMIEWVKKRPGQGLEWIGVINPGSGGTNYNEKFENKATLTADKSSSTAYMQLSSLTSDDSAVYFCARSLDFDGAWFAYWGQGTLVTVSA
VL: DIQMTQSPASLSVSVGETVTITCRASEKIYSNLAWYQQKQGKSPQLLVYAATNLADGVPSRFSGSGSGTQFSLKINSLQPEDFGSYYCQHFWGIPWTFGGGTKLEIKR
notes: as for B3
B6: 7F21A1 (antibody, V domains shown)
VH: QVQLQQSGAELVRPGTSVKVSCRSSGYAFTNYLIEWIKQRPGQGLEWIGVITPGSGGTNYNENFKDKATLTADKSSNTAYMQLTSLTSDDSAVYFCARSFDYDGAWFAYWGQGTLVTVSA
VL: B5 VL with S77N, P80S, I94T
notes: as for B3

Biological target: T1, Human OSCAR (osteoclast-associated …)
Assay: cell-based or functional assay

Row | Binder | IC50 (IL-8), ColI-induced IL-8 release from moDC, Donor 1 | IC50 (IL-8), ColI-induced IL-8 release from moDC, Donor 3 | IC50 (IL-8), ColI-induced IL-8 release from moDC, Donor 4 | IC50 (IL-8), ColI-induced IL-8 release from moDC, Donor 5 | IC50 (IL-8), ColI-induced IL-8 release from moDC, Donor 6 | IC50 (IL-8), ColI-induced IL-8 release from moDC, Donor 2
1 | B1 | 230 pM | 620 pM | – | – | – | –
2 | B2 | 190 pM | 400 pM | 120 pM | 430 pM | 240 pM | –
3 | B3 | – | 910 pM | – | 2490 pM | 1280 pM | –
4 | B4 | 490 pM | 1590 pM | 2060 pM | – | – | –
5 | B5 | < 100 pM | 100 pM | 30 pM | – | – | < 100 pM
6 | B6 | – | 640 pM | 110 pM | – | – | 20 pM

Biological target: T1, Human OSCAR (osteoclast-associated …)
Assay: flow cytometry on primary human monocytes, donor #1
Protocol: (§1) Cell number and viability were determined using a Cedex cell counter. The cells were diluted in washing buffer (1×PBS (—Ca²⁺/—Mg²⁺)+5% FBS+0.1% Na-azide) to […]. In the case of monocytes, the cells were further blocked by adding 10 μl of a hFcR blocker (Miltenyi, #130-059-901) and incubated for 10 minutes at 4° C. 50 μl of cells (50.000 cells/well) were seeded into 96 well round-bottomed microtiter plates. Hybridoma supernatants or purified antibodies (in serial dilutions) were added to the cells at 50 μl/well. The isotype-matched purified irrelevant human mAb or mouse mAb served as negative controls (mouse IgG1, BD, #553452; mouse IgG2a, BD, #557353; mouse IgG2b, BD, #557352). […] Cells were washed in PBS, re-suspended in fixation buffer (1×PBS (—Ca²⁺/—Mg²⁺), pH7.2+1% formalin (B&B, #LAB96751.0500) and analysed by FACS flow cytometer. EC₅₀ values were calculated using a GraphPad Prism 5 software.

Row | Binder | EC50
7 | B1 | 2470 pM
8 | B2 | 660 pM
9 | B3 | 3480 pM
10 | B4 | 1200 pM
11 | B5 | 1210 pM
12 | B6 | 9480 pM

Biological target: T1, Human OSCAR (osteoclast-associated …)
Assay: flow cytometry on primary human monocytes, donor #2
Protocol: as §1

Row | Binder | EC50
13 | B1 | 550 pM
14 | B2 | 320 pM
15 | B3 | 140 pM
16 | B4 | 120 pM
17 | B5 | 120 pM
18 | B6 | 10 pM

Biological target: T2, Human OSCAR-ECD (recombinant …)
Assay: SPR competition, 50 nM OSCAR-ECD premixed with mAb, over immobilised collagen I
Protocol: (§2) The experiment was performed using a Biacore T 100 instrument (GE Healthcare). Human collagen 1 (Sigma, # C5483) and human collagen 2 (Millipore #CC052) were diluted with 10 mM NaOAc, pH 4.5 and immobilized on a Biacore CM3 sensor chip (GE Healthcare) using amine coupling chemistry (GE Healthcare). Immobilization was performed according to the standard procedure, but at 5° C. in order to prevent aggregation collagens, with immobilized levels of ca 250 RU on flow cells (FC) 2 and 4. A blank immobilization was performed on FC 1 & 3, which were used as reference cells. HBS-EP buffer (10 mM HEPES, 150 mM NaCl, 3 mM EDTA, 0.05% Polysorbat P20, pH7.4) was used as running buffer for the immobilization. Buffer containing HBS-EP/+0.1% BSA was used for the competition assay. The competition experiment was performed at 5° C. at a flow rate of 50 μl/min. […] OSCAR was mixed with various concentrations of anti-OSCAR antibodies ranging from 0-10 μg/ml prior to injection. Binding curves were measured for 360 s followed by 240 s of dissociation. The chip surface was regenerated for 2×20 s with 10 mM glycine, pH 2.0 between assays.
(§3) Human collagen I and II were immobilized to the surface of a Biacore sensor chip by amine coupling. […] It was hypothesized that an antibody inhibiting binding of OSCAR to collagen would lead to a concentration-dependent loss of signal, whereas a non-inhibiting antibody would enhance the signal due to the increased mass of the OSCAR-antibody complex.

Row | Binder | binding of OSCAR-ECD to collagen I with 10 µg/mL mAb
19 | B1 | 56.3
20 | B2 | 0.7
21 | B3 | 19.2
22 | B4 | 55
23 | B5 | 145
24 | B6 | 144

Biological target: T2, Human OSCAR-ECD (recombinant …)
Assay: SPR (Biacore T100), mAb coupled or captured on chip, OSCAR-ECD injected, 1:1 fit
Protocol: The kinetic parameters (kₐ, kd and KD) for the interaction were calculated using a 1:1 interaction Langmuir fitting model.

Row | Binder | Kd
25 | B1 | 4500 pM
26 | B2 | 1700 pM
27 | B3 | 2700 pM
28 | B4 | 18000 pM
29 | B5 | 2700 pM
30 | B6 | 18000 pM

Biological target: T2, Human OSCAR-ECD (recombinant …)
Assay: SPR competition, 50 nM OSCAR-ECD premixed with mAb, over immobilised collagen II
Set-up: unit not given here
Protocol: as §2, §3

Row | Binder | binding of OSCAR-ECD to collagen II with 10 µg/mL mAb
31 | B1 | 83.6
32 | B2 | 6.7
33 | B3 | 19.3
34 | B4 | 102
35 | B5 | 335
36 | B6 | 319

Biological target: T2, Human OSCAR-ECD (recombinant …)
Assay: SPR competition, 50 nM OSCAR-ECD premixed with mAb, over ColI immobilised at ca 150 RU
Protocol: (§4) The experiment was performed using a Biacore T 100 instrument (GE Healthcare). Human ColI (Sigma, # C5483) was diluted with 10 mM NaOAc, pH 4.5 to 10 μg/ml and immobilized on a Biacore CM3 sensor chip (GE Healthcare) using amine coupling chemistry (GE Healthcare). Immobilization was performed according to the standard procedure, but at 4° C. in order to prevent aggregation of ColI, with immobilized levels of ca 150 RU on flow cell (FC) 2 and ca 300 RU on FC 4. A blank immobilization was performed on FC 1 & 3, which were used as reference cells. HBS-EP buffer (10 mM HEPES, 150 mM NaCl, 3 mM EDTA, 0.005% Polysorbat P20, pH7.4) was used as running buffer for the immobilization. Buffer containing HBS-EP/+0.1% BSA was used for the competition assay.
(§5) The competition experiment was performed at 4° C. at a flow rate of 50 μl/min. […] OSCAR was mixed with various concentrations of anti-OSCAR antibodies ranging from 0-5 μg/ml prior to injection. Binding curves were measured for 240 s followed by 200 s of dissociation. The chip surface was regenerated for 2×20 s with 10 mM glycine, pH 2.0 between assays. All assays were performed in duplicates.
(§6) Human ColI was immobilized to the surface of a Biacore sensor chip by amine coupling.

Row | Binder | Binding [RU] of OSCAR to ColI with 5 µg mAb
37 | B2 | 0.9 RU

Biological target: T2, Human OSCAR-ECD (recombinant …)
Assay: SPR competition, 50 nM OSCAR-ECD premixed with mAb, over ColI immobilised at ca 300 RU
Protocol: as §4, §5, §6

Row | Binder | Binding [RU] of OSCAR to ColI with 5 µg mAb
38 | B2 | 3.6 RU

biological target: T3, Human OSCAR-S1a (naturally occurring …); assay: SPR competition, 50 nM OSCAR-S1a premixed with mAb, over ColI immobilised at ca 150 RU
Protocol: as §4, §5, §6

Row | Binder | Binding [RU] of OSCAR to ColI with 5 µg mAb
39 | B2 | -0.3 RU

biological target: T3, Human OSCAR-S1a (naturally occurring …); assay: SPR competition, 50 nM OSCAR-S1a premixed with mAb, over ColI immobilised at ca 300 RU
Protocol: as §4, §5, §6

Row | Binder | Binding [RU] of OSCAR to ColI with 5 µg mAb
40 | B2 | 1.4 RU
